Measured values: publication PMC10851439 (Biochemistry, 2024)
Read-outs that look alike come from different tables or passages of the source. Blank lines part the entries; values can stand above or below the substance they belong to.

Legend:
[1] = cited from earlier work
[2] = molecular target: hBD-2_(loop) peptide (C2–C4 loop region of hBD-2 with C-terminal linker) (human); experiment: SPR
[3] = molecular target: hBD-3_(loop) peptide (C2–C4 loop region of hBD-3 with C-terminal linker) (human); experiment: SPR
[4] = molecular target: hNP-1_(loop) peptide (C2–C4 loop region of hNP-1 with C-terminal linker) (human); experiment: SPR
[5] = molecular target: human β-defensin 2 (hBD-2) (human) (UniProt O15263); experiment: SPR
Chain of human β-defensin 2 (hBD-2) (human) (O15263 24-64): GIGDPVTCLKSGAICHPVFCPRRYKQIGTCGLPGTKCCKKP

[6] = molecular target: hBD-2_(loop) peptide (C2–C4 loop region of hBD-2 with C-terminal linker) (human); experiment: SPR; remark: listed apart in the source
[7] = molecular target: hBD-3_(loop) peptide (C2–C4 loop region of hBD-3 with C-terminal linker) (human); experiment: SPR; remark: listed apart in the source
[8] = molecular target: hNP-1_(loop) peptide (C2–C4 loop region of hNP-1 with C-terminal linker) (human); experiment: SPR; remark: listed apart in the source
[9] = molecular target: human β-defensin 3 (hBD-3) (human) (UniProt P81534); experiment: SPR
Chain of human β-defensin 3 (hBD-3) (human) (P81534 23-67): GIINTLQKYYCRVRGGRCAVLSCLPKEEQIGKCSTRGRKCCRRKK

[10] = molecular target: human α-defensin 1 (hNP-1) (human); experiment: SPR
[11] = tested on: NTHi 86–028NP ΔsapA mutant; experiment: Bactericidal assay, ΔsapA mutant; type: cell-based, nontypeable Haemophilus influenzae; conditions: 10 μg/mL AMP, 1 h
NTHi SapA [12] = molecular target: T1, NTHi SapA (Haemophilus influenzae, UniProt Q4QL73); experiment: SPR single-cycle kinetics, SapA over immobilized AMPs; type: binding, nontypeable Haemophilus influenzae; conditions: LL-37 immobilized on SPR sensor chip, five increasing SapA concentrations
T1 sequence (Q4QL73 32-546): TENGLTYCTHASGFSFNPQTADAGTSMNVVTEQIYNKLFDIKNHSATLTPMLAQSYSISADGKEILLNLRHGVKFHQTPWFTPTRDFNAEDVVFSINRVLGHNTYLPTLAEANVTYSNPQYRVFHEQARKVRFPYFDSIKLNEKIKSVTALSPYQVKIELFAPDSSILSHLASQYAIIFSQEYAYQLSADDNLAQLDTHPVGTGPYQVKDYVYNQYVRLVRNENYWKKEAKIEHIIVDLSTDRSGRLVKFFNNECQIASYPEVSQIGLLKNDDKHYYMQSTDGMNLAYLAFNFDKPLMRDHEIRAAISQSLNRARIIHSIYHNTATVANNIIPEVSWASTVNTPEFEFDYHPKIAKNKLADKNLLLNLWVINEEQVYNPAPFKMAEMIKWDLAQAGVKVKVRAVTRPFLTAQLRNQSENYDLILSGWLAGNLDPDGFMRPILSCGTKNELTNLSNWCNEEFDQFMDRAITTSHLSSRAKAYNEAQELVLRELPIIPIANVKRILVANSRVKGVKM

[13] = at the concentrations used for affinity experiments; cited from earlier work
NTHi SapA [14] = molecular target: T1, NTHi SapA; experiment: Spectral shift assay with fluorescently labeled SapA; type: binding, nontypeable Haemophilus influenzae; conditions: peptide up to 100 or 500 μM, triplicate
[15] = Dynamic light scattering of LL-37; type: physicochemical; conditions: LL-37 at 1 mg/mL; data not shown
[16] = tested on: NTHi strain 86–028NP (parent strain); experiment: Bactericidal assay, parental strain; type: cell-based, nontypeable Haemophilus influenzae; conditions: 10 μg/mL AMP, 1 h

Substance: PR-39
net charge [1]: +10

ka1 (two-state model, first step) [2]: 760000 M⁻¹ s⁻¹ | ka2 (two-state model, second step) [2]: 0.0095 s⁻¹ | kd1 (two-state model, first step) [2]: 0.034 s⁻¹ | kd2 (two-state model, second step) [2]: 0.00024 s⁻¹ | ka1 (two-state model, first step) [3]: 280000 M⁻¹ s⁻¹ | ka2 (two-state model, second step) [3]: 0.012 s⁻¹ | kd1 (two-state model, first step) [3]: 0.028 s⁻¹ | kd2 (two-state model, second step) [3]: 0.00012 s⁻¹ | Kd [4]: 0.0038 µM | ka1 (two-state model, first step) [4]: 880000 M⁻¹ s⁻¹ | ka2 (two-state model, second step) [4]: 0.0064 s⁻¹ | kd2 (two-state model, second step) [4]: 0.00045 s⁻¹ | Kd [5]: 0.0175 µM | ka1 (two-state model, first step) [5]: 630000 M⁻¹ s⁻¹ | ka2 (two-state model, second step) [5]: 0.013 s⁻¹ | kd1 (two-state model, first step) [5]: 0.047 s⁻¹ | kd2 (two-state model, second step) [5]: 0.0026 s⁻¹ | Kd [6]: 0.0095 µM | ka1 (two-state model, first step) [6]: 750000 M⁻¹ s⁻¹ | ka2 (two-state model, second step) [6]: 0.0024 s⁻¹ | kd1 (two-state model, first step) [6]: 0.019 s⁻¹ | kd2 (two-state model, second step) [6]: 0.0014 s⁻¹ | Kd [7]: 0.0172 µM | ka2 (two-state model, second step) [7]: 0.004 s⁻¹ | kd1 (two-state model, first step) [7]: 0.033 s⁻¹ | kd2 (two-state model, second step) [7]: 0.003 s⁻¹ | Kd [8]: 0.0171 µM | ka2 (two-state model, second step) [8]: 0.0026 s⁻¹ | kd1 (two-state model, first step) [8]: 0.023 s⁻¹ | kd2 (two-state model, second step) [8]: 0.0019 s⁻¹ | Kd [9]: 0.0105 µM | ka1 (two-state model, first step) [9]: 710000 M⁻¹ s⁻¹ | ka2 (two-state model, second step) [9]: 0.0059 s⁻¹ | kd1 (two-state model, first step) [9]: 0.019 s⁻¹ | kd2 (two-state model, second step) [9]: 0.0022 s⁻¹ | Kd [10]: 0.004 µM | ka1 (two-state model, first step) [10]: 360000 M⁻¹ s⁻¹ | ka2 (two-state model, second step) [10]: 0.0061 s⁻¹ | kd1 (two-state model, first step) [10]: 0.012 s⁻¹ | kd2 (two-state model, second step) [10]: 0.00069 s⁻¹
Substance: NTHi SapA (residues 32–546), wild type (from UniProt Q4QL73 32-546) (natural protein)

Substance: LL-37: alpha helical peptide, the only member of the cathelicidin family found in humans
survival of the ΔsapA mutant at 10 μg/mL [11]: neither the parent strain nor the ΔsapA mutant survived | SapA binding to LL-37 (SPR), result in words (NTHi SapA [12]): low affinity | oligomeric state in solution [13]: higher order oligomers | affinity to labeled SapA, result in words (NTHi SapA [14]): low affinity | aggregation by dynamic light scattering [15]: aggregated at high concentrations | survival of the parent strain at 10 μg/mL [16]: neither the parent strain nor the ΔsapA mutant survived

Substance: protamine
net charge [1]: +21

affinity to labeled SapA, result in words (NTHi SapA [14]): completely abolished affinity
Substance: SSYKQ [hBD-2SSYKQ]

affinity to labeled SapA, result in words (NTHi SapA [14]): completely abolished affinity
Substance: SSYGT [hNP-1SSYGT]

affinity to labeled SapA, result in words (NTHi SapA [14]): completely abolished affinity
Substance: PSSEQ [hBD-3PSSEQ]
